This passage reports binding results from PMC10269683.

The target in the data set is CcpA (Streptococcus pneumoniae D39) (UniProt A0A0H2ZQ65). Nature of the data set: EMSA. Conditions: EMSA: 10 mM Tris-HCl pH 7.4, 1 mM DTT, 1 mM EDTA, 50 mM KCl, 5% glycerol, 50 ug/mL BSA, 0.05% NP-40, 20 min 37 C; footprinting binding 30 min 25 C. A general note: In EMSA bound probe runs differently from free probe, usually more slowly.

For “GCTACAAACTGTTCCAATTTAACTGTGTTTTTCATAATAAAATCTCCTAAAATGTTTTTTCTTGTAAGCTAACTTACAAAAACCATTATACAAAATGGAATTTCGTTTTAGATAAAATTCTCTCAACTGTCATTTTTTTCTCCCAAAGTGTACTTTTTTAAGAAAAAAGCCGGGAAAATTCCCAGCTTTGCTATTATATTGATCCCAGCAGGATTCGAACCTGCGACCGTTCGCTTAGAAGGCGAATGCTCTATC (double strand) [P240 (PcomCDE)]”, the binding result is reported as “binds”.
